Among the data in paper PMC6028451, “Cotranslational protein targeting to the membrane: Nascent-chain transfer in a quaternary complex formed at the translocon” (Scientific Reports, 2018) are Kd values, retold here.

For this assay, the target named is T1, SecYEG translocon embedded in phospholipid-containing nanodiscs (Escherichia coli, UniProt P0AGA2 1-443; P0AG96 1-127; P0AG99 1-110).
T1 construct: SecY, Escherichia coli; SecE, Escherichia coli; SecG, Escherichia coli; membrane scaffold protein MSP1D1, the belt of the nanodisc; the disc holds E. coli total lipids; also called non-mutated SecYEG; copies: 1 + 1 + 1 + 2
Briefly: not stated; proOmpA75-RNC with SecYEG in nanodiscs (Supplementary Fig. S4b). The conditions noted are these: both partners purified.

B1: proOmpA75-RNC: ribosome-nascent-chain complex carrying the nascent chain of outer-membrane protein A (complex)
chain: MKKTAIAIAVALAGFATVAQAAPKDNTWYTGAKLGWSQYHDTGFINNNGPTHENQLGAGAFGGYQVNPYVGFEMG
Turning to B1, binding was characterised by a dissociation constant (Kd) of 15 ± 3 nM.
